In assay [1] the target is T1, ARG2 from CCM of LNCaP, A673 and A2780-Cis (Homo sapiens, UniProt P78540).
T1 construct: ARG2 is released into the CCM from LNCaP, A673 and A2780-Cis cell lines; endogenous in cells; host or cells: cell conditioned medium of cancer cell lines (LNCaP, A673, A2780-Cis and others)
T1 sequence (P78540 23-354): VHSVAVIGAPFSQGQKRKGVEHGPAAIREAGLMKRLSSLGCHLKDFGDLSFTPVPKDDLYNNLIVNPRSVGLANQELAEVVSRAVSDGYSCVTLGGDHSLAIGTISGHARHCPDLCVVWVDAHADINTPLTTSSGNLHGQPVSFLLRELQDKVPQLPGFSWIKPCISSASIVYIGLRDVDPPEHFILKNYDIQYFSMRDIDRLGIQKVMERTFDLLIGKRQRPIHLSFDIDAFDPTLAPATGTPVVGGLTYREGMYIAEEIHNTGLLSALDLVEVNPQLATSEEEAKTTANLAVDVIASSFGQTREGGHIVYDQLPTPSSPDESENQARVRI
In words: ELISA binding to ARG2 from CCM of cancer cell lines. The note with it: biotinylated IgG at 10 μg/ml as detection antibody, FIG. 18. An excerpt: In this experiment the presence of ARG2 in CCM samples was validated using commercial ARG2 ELISA kit (Cloud-Clone Corp., cat. SED796Hu). Additionally, the protocol was modified to include 1st generation IgG C0021061 and 2nd generation IgG C0021158 as detection antibodies to confirm binding of ARG2 IgG's to ARG2 expressed from cancer cell lines (FIG. 18).
The commercial kit is a 96-well plate pre-coated with anti-ARG2, which uses sandwich ELISA to quantify ARG2 in samples. Standards, biotinylated detection antibody, detection, substrate, and stop reagents are all provided in the kit. […] 100 μl of diluted CCM/media control was used for each well of kit and ELISA was performed following manufacturer's protocol. Each sample was run in duplicate. In parallel, CCM/media control samples were also included to test for binding of C0021061 and C0021158 to ARG2 in CCM samples. […] At the end of the assay, absorbance at 450 nm was read out on PheraStar (BMG). The absorbance values of standards were used to make standard curve and was used to interpolate ARG2 levels in CCM samples (where PAD detection antibody supplied with the kit was used). Similarly, absorbance reads from wells that received C0021061 and C0021158 were used to […] and 2nd generation ARG2 IgGs (C0021061 and C0021158 respectively) bind to ARG2 in CCM samples (FIG. 18).

In a further assay the target is T2, human ARG1 (Homo sapiens, UniProt P05089).
T2 construct: Avi tag (N); His10 (after a GGG linker) (C); made in house; host or cells: E. coli BL21 (DE3)
T2 sequence (P05089 with tags, fused parts or gaps): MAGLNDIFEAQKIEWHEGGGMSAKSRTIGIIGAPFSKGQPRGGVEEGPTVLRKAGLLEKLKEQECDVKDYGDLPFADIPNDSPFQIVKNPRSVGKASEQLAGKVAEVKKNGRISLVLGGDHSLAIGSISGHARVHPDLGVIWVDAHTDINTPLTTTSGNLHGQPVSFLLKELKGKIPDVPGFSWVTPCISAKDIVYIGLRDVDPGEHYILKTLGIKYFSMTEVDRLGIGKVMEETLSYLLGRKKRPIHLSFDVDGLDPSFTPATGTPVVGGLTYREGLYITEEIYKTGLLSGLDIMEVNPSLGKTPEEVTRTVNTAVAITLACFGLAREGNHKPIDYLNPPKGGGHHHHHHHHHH
The experiment in a line: Bio-Layer Interferometry (OctetRED) binding, human ARG1. The settings on record: Fab analyte up to 120 nM, screening assay on anti-His surface. Summed up:
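Human ARG1 binding measured by OctetRED bio-layer interferometry, with Fabs as analyte (typically 1.8 to 120 nM). Association ran 5 min and dissociation 10 min, with regeneration in 10 mM glycine pH 1.5 between cycles.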

B1: C0021061: anti-ARG2 antibody, first generation lead, VH SEQ ID NO: 62, VL SEQ ID NO: 67 (antibody, listed as Homo sapiens, V domains shown)
VH: EVQLLESGGGLVQPGGSLRLSCAASGFTFSSYAMSWVRQAPGKGLEWVSAKPTDAGSTYYADSVKGRFTISRDNSKNTLYLQMNSLRAEDTAVYYCARLRADLGLYMDLWGRGTLVTVSS
VL: QSVLTQPPSVSAAPGQKVTISCSGSSSNIGNHYVSWYQQLPGTAPKLLIYNTVYPKSGIPDRFSGSKSGTSATLGITGLQTGDEADYYCGTWDSSLSALVFGGGTKLTVL
modifications: C0021061
With B1, in assay [1], the “binding to ARG2 from CCM of LNCaP, A673 and A2780-Cis (ELISA)” value is “binding”. The “Results, binding to human ARG1 (BLI)” value in the assay with human ARG1 is given as “No binding observed”.

The values above are taken from patent US20220403048A1, “BINDING MOLECULES TO ARGINASE II [ARG2]” (Cancer Research Technology Limited, priority 2019, published 2022).
